{"source": "patent US8802160B2", "about": "(Amorphical Ltd., priority 2007, dated 2014)", "molecules": {"B1": {"name": "GAP65: approximately 65 kDa negatively charged glycoprotein from Cherax quadricarinatus gastrolith, SEQ ID NO:1; used as GAP65 enriched fraction (protein, listed as Cherax quadricarinatus)", "chain": "MIRRVTTPLLALLLAGWVVAQTTDMDPEQYCARRDDEYFRKDFGDPAEFASDYRANCGVYYRCVPAPAGKRSISASQCQSELFFDVQQQICERKSKVTNCEQIDKEHPPQPFWPLREGEESQCKSGEIMCGSGECLPQHRFCDENSDCADGSDENICTPDKDPNRADVCEPRTCLWSQGCFCSVDGTRIPGDLTVDQTPQMITITFTGAINERNFRIFQDVFKDTVKHKGNDCTPKGTFFISHGFSNYSAIQELNRVGHEIAVSSITNNDNPDYWSKLSALDYEAEMDGARLIIEKFANITANEVLGIRVPKQRVGGNRQFRMMVDWGFLYDSSISAPMGRLPLWPYTLMHRMPHKCLGNDQNCPSQNFTVWEMVINEMDRRDDPQFDERLTGCHFVDQCANIQSPEQFRAFLDNNLARHYRTNRAPLGLHFTSGYFETRRDFLREFVKWVRETALSGDYFFVTMQQVINWMEAPTELTAINNFQEWKGKCEVKGQPYCSLPNPCPKKVPRIFPNEEEMFLYTCMECPNTYPWLGDPHGNGFLDIPDF", "modifications": "glycosylated", "notes": "used as GAP65 enriched fraction"}, "B2": {"name": "trypsin (protein, UniProt P00760 24-246, looked up)", "Serine protease 1": "IVGGYTCGANTVPYQVSLNSGYHFCGGSLINSQWVVSAAHCYKSGIQVRLGEDNINVVEGNEQFISASKSIVHPSYNSNTLNNDIMLIKLKSAASLNSRVASISLPTSCASAGTQCLISGWGNTKSSGTSYPDVLKCLKAPILSDSSCKSAYPGQITSNMFCAGYLEGGKDSCQGDSGGPVVCSGKLQGIVSWGSGCAQKNKPGVYTKVCNYVSWIKQTIASN", "notes": "other (inert) protein used as control in the precipitation assay"}}, "key": {"[1]": {"experiment": "Stability of ACC at room temperature by Raman spectroscopy", "format": "physicochemical", "description": "The precipitated calcium carbonate was checked over long periods for the amorphous/crystalline state.\n(§1) 100 μl of 1M CaCl2 was added to 10 ml double distilled water (final concentration: 10 mM). 80 μl from the protein extraction solution (1.2 μg/μl) were added (final concentration ˜10 μg/ml). 100 μl of 1M Na2CO3 (final concentration: 10 mM) was added following an intensive shaking. The vial was centrifuged for 5 min at 4000 rpm, the precipitate was smeared over a glass slide and instantly dried with air flow. […] The observations were confirmed by Raman spectroscopy."}, "[2]": {"experiment": "In vitro calcium carbonate precipitation assay testing the stabilization of ACC", "format": "physicochemical", "conditions": "for effect on calcium carbonate precipitation (polymorph obtained): CaCl2 + Na2CO3 solution, SEM, Raman", "description": "Electron microscope images of the precipitates distinctly indicated different polymorph composition of calcium carbonate for the precipitation in the presence/absence of GAP65-enriched fractions (FIG. 7).\nFIG. 7 presents precipitation results of calcium carbonate in the presence of GAP65 and in the presence of other protein (trypsin). SEM images in FIG. 7A indicate the distinct polymorph of calcium carbonate in each treatment.\nas §1\nThe peak at 560 is attributed to the glass substrate. […] Specific expression of GAP21, GAP22 and GAP65 in several target tissues was checked by means of RT-PCR, similarly as described in Example 2. GAP21 and GAP65 expressions were found in both cuticle related tissues. GAP22 expression was found only in the gastrolith epithelial disc. The cDNA sequences of the corresponding genes were obtained and their deduced proteins were found (FIGS. 13-15). […] GAP12, GAP21 and GAP22, on the other hand, show no significant similarity to any known domain."}}, "note": "Entries after “also recorded” stand apart in the source; their conditions may differ."}
{"molecule": "B1", "values": [{"measurement": "time ACC precipitated with GAP65 remained stable", "setting": "[1]", "result": "at least 1 months"}, {"measurement": "ACC share of the total CaCO3 precipitated", "setting": "[2]; 10 mM CaCl2, 10 mM Na2CO3, ~10 μg/ml protein, estimated", "result": "at least 50%"}, {"measurement": "effect on calcium carbonate precipitation (polymorph obtained)", "setting": "[2]", "result": "amorphous CaCO3; also recorded: deposition of an amorphous form (ACC)"}]}
{"molecule": "B2", "values": [{"measurement": "effect on calcium carbonate precipitation (polymorph obtained)", "setting": "[2]", "result": "rapid crystallization"}]}
